Results reported in patent US20200276130A1 (WISCONSIN ALUMNI RESEARCH FOUNDATION, published 2020).
Each block holds one binder with its values, some of them ahead of it.

Columns and labels:
endogenous HSPA9 = target: T1, endogenous HSPA9 (human, UniProt P38646 47-679); assay: anti-Flag co-immunoprecipitation from MCF7 cell lysates, Western blot
T1 construct: Endogenous protein co-precipitated from cell lysate

[1] = target: T2, endogenous IP3R1 (inositol 1,4,5-trisphosphate receptor 1) (human, UniProt Q14643 1-2758, limits assumed); assay: anti-Flag M2 resin immunoprecipitation from MCF7 cells, Western blot
T2 construct: Endogenous protein co-precipitated from cell lysate; also called ITPR1

[2] = target: T3, endogenous IP3R3 (inositol 1,4,5-trisphosphate receptor 3) (human, UniProt Q14573 1-2671); assay: as above
T3 construct: Endogenous protein co-precipitated from cell lysate; also called ITPR3

[3] = target: T4, GST-CARM1 fusion protein (glutathione S-transferase tagged co-activator associated arginine methyltransferase … (UniProt Q86X55 1-608)); assay: in vitro interaction assay, in vitro translated Flag-PKM2 truncation with GST-CARM1
T4 construct: Expressed in E. coli BL-21, purified on glutathione sepharose; also called GST tagged CARM1; not shown: glutathione S-transferase (GST) tag
T4 sequence (looked up): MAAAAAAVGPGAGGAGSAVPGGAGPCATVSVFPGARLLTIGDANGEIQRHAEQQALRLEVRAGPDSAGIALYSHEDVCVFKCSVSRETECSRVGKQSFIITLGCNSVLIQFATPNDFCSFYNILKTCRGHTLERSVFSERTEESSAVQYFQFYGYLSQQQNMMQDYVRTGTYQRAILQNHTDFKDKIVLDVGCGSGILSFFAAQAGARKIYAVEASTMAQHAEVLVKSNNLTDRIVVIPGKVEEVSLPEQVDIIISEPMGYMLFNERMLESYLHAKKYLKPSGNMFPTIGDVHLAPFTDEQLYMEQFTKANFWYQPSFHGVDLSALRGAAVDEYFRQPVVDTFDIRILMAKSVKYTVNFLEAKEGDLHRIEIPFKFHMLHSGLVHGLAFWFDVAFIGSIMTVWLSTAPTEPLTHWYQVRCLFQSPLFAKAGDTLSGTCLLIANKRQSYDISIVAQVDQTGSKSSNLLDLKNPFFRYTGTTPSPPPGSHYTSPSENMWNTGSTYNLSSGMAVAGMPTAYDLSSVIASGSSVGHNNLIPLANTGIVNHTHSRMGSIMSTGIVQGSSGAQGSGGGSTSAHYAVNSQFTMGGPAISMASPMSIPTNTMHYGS
Protocol: Flag-tagged full length PKM2 and its truncations constructs were translated by T7 Quick Coupled Translation/Transcription system (Promega). […] The beads were washed 4 times with binding buffer, and recombinant proteins were eluted with 500 μg/ml 3× Flag peptides. Samples were analyzed by SDS-PAGE and Western blotting.

T2 sequence (Q14643 whole entry): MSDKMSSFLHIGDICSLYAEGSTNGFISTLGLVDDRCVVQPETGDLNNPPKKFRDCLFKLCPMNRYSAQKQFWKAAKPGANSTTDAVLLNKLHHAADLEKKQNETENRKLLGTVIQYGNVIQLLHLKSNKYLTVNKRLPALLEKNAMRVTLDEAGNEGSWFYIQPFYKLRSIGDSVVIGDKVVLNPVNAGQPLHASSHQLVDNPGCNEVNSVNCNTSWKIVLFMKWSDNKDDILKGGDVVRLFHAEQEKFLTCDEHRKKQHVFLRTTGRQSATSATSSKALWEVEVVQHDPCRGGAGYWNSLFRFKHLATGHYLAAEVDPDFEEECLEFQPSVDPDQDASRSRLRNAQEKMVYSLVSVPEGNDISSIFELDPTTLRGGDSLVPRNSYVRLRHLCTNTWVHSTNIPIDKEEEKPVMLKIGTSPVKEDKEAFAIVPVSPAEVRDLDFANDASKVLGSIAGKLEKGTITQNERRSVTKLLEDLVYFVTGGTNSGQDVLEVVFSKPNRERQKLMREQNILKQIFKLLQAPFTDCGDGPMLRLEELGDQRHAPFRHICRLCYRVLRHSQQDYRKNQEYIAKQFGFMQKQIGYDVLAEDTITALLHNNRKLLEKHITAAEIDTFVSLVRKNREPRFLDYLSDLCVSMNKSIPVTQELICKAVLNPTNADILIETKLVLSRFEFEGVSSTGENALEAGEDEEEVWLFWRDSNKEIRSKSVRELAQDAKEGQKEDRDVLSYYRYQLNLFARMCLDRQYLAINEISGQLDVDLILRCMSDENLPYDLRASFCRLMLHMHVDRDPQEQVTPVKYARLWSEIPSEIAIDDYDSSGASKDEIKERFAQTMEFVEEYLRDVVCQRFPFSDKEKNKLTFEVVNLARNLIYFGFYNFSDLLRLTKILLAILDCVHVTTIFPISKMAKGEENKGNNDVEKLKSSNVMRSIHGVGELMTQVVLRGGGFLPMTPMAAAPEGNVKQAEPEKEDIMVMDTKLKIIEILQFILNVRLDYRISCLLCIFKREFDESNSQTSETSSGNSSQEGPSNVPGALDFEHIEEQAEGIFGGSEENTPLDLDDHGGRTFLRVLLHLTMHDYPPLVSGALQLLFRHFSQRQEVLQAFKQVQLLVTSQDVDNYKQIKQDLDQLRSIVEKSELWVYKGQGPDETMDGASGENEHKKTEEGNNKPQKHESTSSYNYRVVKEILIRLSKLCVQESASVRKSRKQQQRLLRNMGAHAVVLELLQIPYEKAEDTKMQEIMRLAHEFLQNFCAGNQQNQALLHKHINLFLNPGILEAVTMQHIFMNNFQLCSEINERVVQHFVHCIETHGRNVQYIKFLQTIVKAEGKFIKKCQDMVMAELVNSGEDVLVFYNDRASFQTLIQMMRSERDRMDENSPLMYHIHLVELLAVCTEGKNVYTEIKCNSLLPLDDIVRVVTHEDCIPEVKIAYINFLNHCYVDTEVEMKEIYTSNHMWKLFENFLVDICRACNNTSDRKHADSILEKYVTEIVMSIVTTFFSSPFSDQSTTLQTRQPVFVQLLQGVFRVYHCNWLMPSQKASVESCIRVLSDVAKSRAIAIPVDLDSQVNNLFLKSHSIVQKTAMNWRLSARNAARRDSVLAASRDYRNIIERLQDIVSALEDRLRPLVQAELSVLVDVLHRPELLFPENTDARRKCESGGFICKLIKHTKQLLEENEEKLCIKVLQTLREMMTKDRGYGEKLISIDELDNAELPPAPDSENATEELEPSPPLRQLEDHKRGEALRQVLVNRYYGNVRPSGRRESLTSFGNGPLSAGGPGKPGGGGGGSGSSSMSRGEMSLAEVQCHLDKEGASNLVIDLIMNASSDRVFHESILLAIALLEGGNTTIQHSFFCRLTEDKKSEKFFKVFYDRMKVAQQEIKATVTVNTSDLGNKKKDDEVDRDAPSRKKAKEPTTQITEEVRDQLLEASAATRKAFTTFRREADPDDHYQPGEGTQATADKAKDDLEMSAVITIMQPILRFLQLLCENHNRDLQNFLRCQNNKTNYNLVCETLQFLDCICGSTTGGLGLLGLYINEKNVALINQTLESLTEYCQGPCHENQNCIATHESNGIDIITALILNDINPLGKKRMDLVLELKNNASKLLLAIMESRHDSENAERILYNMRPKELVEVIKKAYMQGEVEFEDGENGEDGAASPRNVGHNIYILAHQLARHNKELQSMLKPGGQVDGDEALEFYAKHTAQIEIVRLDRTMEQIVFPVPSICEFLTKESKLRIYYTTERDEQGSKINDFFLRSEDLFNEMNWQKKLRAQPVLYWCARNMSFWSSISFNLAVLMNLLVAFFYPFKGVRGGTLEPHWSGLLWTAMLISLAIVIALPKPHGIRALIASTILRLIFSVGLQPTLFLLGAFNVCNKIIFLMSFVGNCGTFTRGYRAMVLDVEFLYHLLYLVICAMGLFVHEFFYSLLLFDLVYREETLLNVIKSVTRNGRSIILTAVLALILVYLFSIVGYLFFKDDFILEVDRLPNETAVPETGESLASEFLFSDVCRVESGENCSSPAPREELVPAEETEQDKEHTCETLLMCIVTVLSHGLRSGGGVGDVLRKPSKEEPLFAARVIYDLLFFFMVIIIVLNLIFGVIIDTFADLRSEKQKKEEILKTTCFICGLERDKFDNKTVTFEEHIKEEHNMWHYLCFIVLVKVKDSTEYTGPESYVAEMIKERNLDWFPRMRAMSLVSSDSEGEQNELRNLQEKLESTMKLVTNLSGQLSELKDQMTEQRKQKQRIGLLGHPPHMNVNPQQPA
T1 sequence (P38646 47-679 limits assumed): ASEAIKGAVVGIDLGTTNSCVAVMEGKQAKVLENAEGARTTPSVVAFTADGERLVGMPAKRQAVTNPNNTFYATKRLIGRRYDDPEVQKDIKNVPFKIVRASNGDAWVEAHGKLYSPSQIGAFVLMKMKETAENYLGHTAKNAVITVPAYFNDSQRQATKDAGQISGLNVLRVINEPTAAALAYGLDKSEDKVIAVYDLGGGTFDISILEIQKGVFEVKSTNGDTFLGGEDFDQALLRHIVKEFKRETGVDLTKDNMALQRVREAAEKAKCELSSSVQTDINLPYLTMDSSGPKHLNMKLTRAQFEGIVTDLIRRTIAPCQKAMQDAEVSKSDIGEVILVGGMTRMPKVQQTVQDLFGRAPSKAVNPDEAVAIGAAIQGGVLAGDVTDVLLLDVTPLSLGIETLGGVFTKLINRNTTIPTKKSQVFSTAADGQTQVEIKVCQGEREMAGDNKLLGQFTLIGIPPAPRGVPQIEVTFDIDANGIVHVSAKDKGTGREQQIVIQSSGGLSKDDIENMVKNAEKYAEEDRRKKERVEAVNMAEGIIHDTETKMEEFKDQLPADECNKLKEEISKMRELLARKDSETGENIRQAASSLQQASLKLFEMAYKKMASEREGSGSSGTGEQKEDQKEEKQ

binding result (endogenous HSPA9): no binding
B1: Flag-tagged PKM1 (pyruvate kinase M1) (enzyme)
chain: not shown
notes: Purified recombinant protein in the GST pull-down; expressed in MCF7 or HEK293T PKM2 KO cells in the co-immunoprecipitations; also called Flag-PKM1; recombinant PKM1; not shown: Flag tag

binding result [1]: no binding | binding result [2]: no binding
B2: Flag-tagged PKM2^mut (R445K, R447K and R455K), methylation-defective PKM2 (enzyme)
chain: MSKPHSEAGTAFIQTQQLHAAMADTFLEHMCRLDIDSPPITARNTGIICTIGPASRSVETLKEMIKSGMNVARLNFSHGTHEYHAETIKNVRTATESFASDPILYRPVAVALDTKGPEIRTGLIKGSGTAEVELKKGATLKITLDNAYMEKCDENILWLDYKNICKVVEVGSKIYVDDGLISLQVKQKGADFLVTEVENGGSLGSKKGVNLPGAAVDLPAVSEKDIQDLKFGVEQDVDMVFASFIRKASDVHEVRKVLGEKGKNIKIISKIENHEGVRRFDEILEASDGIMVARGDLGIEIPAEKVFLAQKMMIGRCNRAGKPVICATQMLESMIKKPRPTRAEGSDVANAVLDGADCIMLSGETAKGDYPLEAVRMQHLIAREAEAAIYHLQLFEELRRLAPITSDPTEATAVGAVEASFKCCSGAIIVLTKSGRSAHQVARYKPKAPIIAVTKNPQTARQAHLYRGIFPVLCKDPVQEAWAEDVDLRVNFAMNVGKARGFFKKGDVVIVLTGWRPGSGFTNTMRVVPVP
notes: Stably expressed in MCF7 (and MDA-MB-231) PKM2 KO cells; precipitated with anti-Flag M2 resin; also called PKM2 R445/447/455K; not shown: left out

binding result [3]: no binding
B3: truncated Flag-PKM2 with truncation of both the C domain and the N/A1 domain (enzyme)
chain: not shown
notes: In vitro translated; also called 48 (as printed, probably delta-8); not shown: Flag tag
